The results in this text go back to publication PMC8684756.

One assay addresses Int^C-mCitrine-hFis1. Nature of the assay: protein trans-splicing.
For a further assay, the target named is Int^C-mCitrine-Tom7. Nature of the assay: protein trans-splicing.

Turning to Tom20-mCherry-Int^N, the percent of Tom20-FP1 spliced to the partner with Int^C-mCitrine-hFis1 is 50%; in the assay with Int^C-mCitrine-Tom7, 30%.
